Assay results as given in publication PMC7171172.

Target: Rhodobacter capsulatus formate dehydrogenase subunit FdsA (Rhodobacter capsulatus)
Assay: cryo-EM structure; single particle analysis of the co-expressed, co-purified RcFDH complex (100 µg/ml), as isolated with 10 mM azide and after 5 min with 2 mM NADH; C2 symmetry imposed; 3.3 Å and 3.2 Å

stoichiometry N: 2
Substance: Rhodobacter capsulatus formate dehydrogenase subunit FdsA (natural protein)
